Substrate in data set [1]: O=CO
As to the kind of experiment: purified protein. The following applies: 2 mM BV2+ fixed, formate 0.125-200 mM, 50 mM phosphate pH 7.5, 25 °C, anaerobic.

Substrate in data set [2]: c1ccc(C[n+]2ccc(-c3cc[n+](Cc4ccccc4)cc3)cc2)cc1
Description: purified protein. Format: biochemical, Escherichia coli. The following applies: 10 mM formate fixed, BV2+ 0.125-20 mM, 50 mM phosphate pH 7.5, 25 °C, anaerobic, artificial electron acceptor.

Consider 2 proteins from paper PMC12176258, “Stabilization of the catalytically active structure of a molybdenum‐dependent formate dehydrogenase depends on a highly conserved lysine residue” (The Febs Journal, 2025).

One may read the Km as the substrate concentration at which the rate is half of its maximum.

Substitutions are numbered along the chain they refer to. Names may count otherwise.

B1: EcFDH-H (Escherichia coli formate dehydrogenase H) (Escherichia coli K-12) (protein)
chain: MKKVVTVCPYCASGCKINLVVDNGKIVRAEAAQGKTNQGTLCLKGYYGWDFINDTQILTPRLKTPMIRRQRGGKLEPVSWDEALNYVAERLSAIKEKYGPDAIQTTGSSRGTGNETNYVMQKFARAVIGTNNVDCCARVUHGPSVAGLHQSVGNGAMSNAINEIDNTDLVFVFGYNPADSHPIVANHVINAKRNGAKIIVCDPRKIETARIADMHIALKNGSNIALLNAMGHVIIEENLYDKAFVASRTEGFEEYRKIVEGYTPESVEDITGVSASEIRQAARMYAQAKSAAILWGMGVTQFYQGVETVRSLTSLAMLTGNLGKPHAGVNPVRGQNNVQGACDMGALPDTYPGYQYVKDPANREKFAKAWGVESLPAHTGYRISELPHRAAHGEVRAAYIMGEDPLQTDAELSAVRKAFEDLELVIVQDIFMTKTASAADVILPSTSWGEHEGVFTAADRGFQRFFKAVEPKWDLKTDWQIISEIATRMGYPMHYNNTQEIWDELRHLCPDFYGATYEKMGELGFIQWPCRDTSDADQGTSYLFKEKFDTPNGLAQFFTCDWVAPIDKLTDEYPMVLSTVREVGHYSCRSMTGNCAALAALADEPGYAQINTEDAKRLGIEDEALVWVHSRKGKIITRAQVSDRPNKGAIYMTYQWWIGACNELVTENLSPITKTPEYKYCAVRVEPIADQRAAEQYVIDEYNKLKTRLREAALA
notes: full-length selenocysteine-containing enzyme, C-terminal His6-tag, from pTrc99a-fdhF in E. coli JG-X (MC4100 delta-fdhF delta-iscR) with helper pSU21-selC; holds Mo(MGD)2 and one [4Fe-4S] cluster
In the case of B1, the Km in the data set “purified protein [1]” stood at 1850 ± 270 µM; in “purified protein [2]” it was 2750 ± 500 µM.

B2: EcFDH-H (Escherichia coli formate dehydrogenase H) (Escherichia coli K-12; K44R) (protein)
chain: B1 chain with K44R
notes: as for B1
B2: the Km in the data set “purified protein [1]” turned out to be 58610 ± 6150 µM; in “purified protein [2]” it was 2210 ± 370 µM.
